The text below walks through data of paper PMC6200863, “Hydrogen Peroxide-Based Fluorometric Assay for Real-Time Monitoring of SAM-Dependent Methyltransferases” (Frontiers in Bioengineering and Biotechnology, 2018).

Substrate in the data set: O=C(O)c1ccccc1O
Description: Mtn/XOD/HRP-coupled Amplex Red fluorescence, initial rates, non-linear regression. Format: biochemical, Clarkia breweri. To be noted: 0.5 mM SAM, 5 mM MgCl2, 1 mM KCl, pH 7.5, 30°C, coupling enzymes possibly rate-limiting.

B1: SA MTase (salicylic acid methyltransferase) (Clarkia breweri) (protein)
chain: MDVRQVLHMKGGAGENSYAMNSFIQRQVISITKPITEAAITALYSGDTVTTRLAIADLGCSSGPNALFAVTELIKTVEELRKKMGRENSPEYQIFLNDLPGNDFNAIFRSLPIENDVDGVCFINGVPGSFYGRLFPRNTLHFIHSSYSLMWLSQVPIGIESNKGNIYMANTCPQSVLNAYYKQFQEDHALFLRCRAQEVVPGGRMVLTILGRRSEDRASTECCLIWQLLAMALNQMVSEGLIEEEKMDKFNIPQYTPSPTEVEAEILKEGSFLIDHIEASEIYWSSCTKDGDGGGSVEEEGYNVARCMRAVAEPLLLDHFGEAIIEDVFHRYKLLIIERMSKEKTKFINVIVSLIRKSD
Regarding B1, the Km is on record as 6.8 (±1.0) μM and the kcat is given as 0.98 (±0.3) min^-1.
